For assay [1], the target named is S100i1 from Danio rerio (wild type) (Danio rerio) (UniProt Q6XG62). Briefly: SEC; 24 mL Superdex 75 Increase 10/300 GL, 20 mM Tris-HCl pH 7.5, 100 mM NaCl; self-association (homodimer). For orientation: In gel filtration, larger molecules generally elute earlier.
Assay [2] has the same target. Kind of assay: crystal structure; sitting-drop vapor diffusion at 291 K, 10 mg/mL protein; apo S100i1 (0.2 M Li sulfate, Tris-HCl pH 8.5, 25% PEG 4000), Na+-S100i1 (0.2 M Na acetate, Tris-HCl pH 9.5, 35% PEG 4000), Mg2+-S100i2 (0.2 M MgCl2, Tris-HCl pH 8.5, 30% PEG 4000).
For assay [3], the target named is S100i2 from Danio rerio (wild type) (Danio rerio) (UniProt A3FKT8). Briefly: SEC; 24 mL Superdex 75 Increase 10/300 GL, 20 mM Tris-HCl pH 7.5, 100 mM NaCl; self-association (homodimer).
Assay [4] shares this target. Briefly: crystal structure; sitting-drop vapor diffusion at 291 K, 10 mg/mL protein; apo S100i1 (0.2 M Li sulfate, Tris-HCl pH 8.5, 25% PEG 4000), Na+-S100i1 (0.2 M Na acetate, Tris-HCl pH 9.5, 35% PEG 4000), Mg2+-S100i2 (0.2 M MgCl2, Tris-HCl pH 8.5, 30% PEG 4000).

The stoichiometry N is a count of units in the complex or per binding partner. As for “S100i1 from Danio rerio (wild type) (from UniProt Q6XG62 1-95) (natural protein)”, the stoichiometry N in assay [1] and in assay [2] was 2 in each case.

For the substance “S100i2 from Danio rerio (wild type) (from UniProt A3FKT8 1-97) (natural protein)”, the stoichiometry N in assay [3] and in assay [4] was 2 throughout.

The values above are taken from article PMC13044992.
